Reference: patent US20110093983A1, “ALGAL GLYCEROL-3 PHOSPHATE ACYLTRANSFERASE” (National Research Council of Canada, priority 2008, published 2011)
“Also recorded” adds a separate entry of the source.

Experiments:
[1] = test system: Arabidopsis thaliana; assay: Fatty acid and oil content analysis of T2 seeds from TpGPAT transgenic Arabidopsis; type: in vivo; conditions: transgenic Arabidopsis lines (GW), Napin promoter
Procedure: FIG. 5 graphically depicts the results of the analysis of the fatty acid 16:0 content of T2 seeds from TpGPAT transgenic Arabidopsis. Fatty acid analysis was performed on TpGPAT transformed Arabidopsis seeds. Fatty acid composition (as molar percentage) was determined in the seed oil extracted from 200 T2 seeds of 13 TpGPA:pSE transformed Arabidopsis lines (GW4-GW17). pSE129A empty plasmid transformed wild-type Arabidopsis was used as a control.
FIG. 7 graphically depicts the total oil content of TpGPAT transformed Arabidopsis seeds. Oil contents (as percentage of dry weight) were determined in 200 T2 seeds of the 13 TpGPA:pSE transformed Arabidopsis lines (GW4-12; GW14-17). Wild-type Arabidopsis was used as a control (Con).
The full length coding region of the TpGPAT gene was amplified using pfu DNA polymerase and primers designed with two restriction sites (KpnI and XbaI) added for subsequent cloning. Then, the PCR product was digested and inserted in a plant transformation vector (pSE129A) under the control of a seed-specific promoter (Napin). The binary vector was introduced by electroporation into Agrobacterium tumefaciens strain GV3101 containing helper plasmid pMP90 (Koncz and Schell, 1986). […]

[2] = test system: yeast gat1 mutant; assay: Lipidomic analysis of phospholipids from yeast gat1 transformed with TpGPAT or GAT1, fed EPA or DHA; type: cell-based, Saccharomyces cerevisiae; conditions: tandem mass spectrometer lipidomics
Description: FIG. 4 graphically depicts the results of the lipidomic analysis (fatty acid composition) of the lipids from yeast gat1 mutants transformed with either TpGPAT1 or GAT1. Yeast cells expressing TpGPAT or yeast GAT1 were fed with EPA (20:5) or DHA (22:6) upon induction of the genes. Total lipids from the yeast cells were extracted and subjected to lipidomic analysis using a tandem mass spectrometer. The results are presented as the molar ratio of EPA- or DHA-containing phospholipids (PC, PE, PS, PI) in the total phospholipids.
To further determine the role of TpGPAT in the incorporation of VLGPUFAs into glycerolipids, yeast gat1 strain transformed with TpGPAT or GAT1 under the control of the GAL1 promoter was grown in the presence of EPA (20:5) or DHA (22:6) upon induction of the genes. Phospholipids were extracted and subjected to lipidomic analysis using a tandem mass spectrometer (testing conducted by the Kansas Lipidomics Research Center). […] It was thus concluded that TpGPAT has a role in controlling PUFA accumulation in glycerolipid.

[3] = GPAT activity assay of microsomal membrane fractions from yeast gat1 mutant expressing TpGPAT; type: biochemical, Saccharomyces cerevisiae
Procedure: FIG. 2 depicts GPAT activity of TpGPAT1 expressed in yeast gat1 mutant. The microsomal membrane fractions prepared from lysates of the induced yeast cells harboring TpGPAT1 or empty vector pYES2.1 were assayed for GPAT activity with 400 μM [^14C]glycerol 3-phosphate (2.5 nCi/nmol), 45 μM palmitoyl-CoA, 75 mM Tris-HCl, pH 7.5, 1 mM DTT, and 2 mM MgCl2 for 10 min at room temperature. After extraction of the phospholipid products, the radioactivity was measured by scintillation count.
FIG. 3 depicts substrate specificity of TpGPAT1. The microsomal membrane fractions prepared from lysates of the induced yeast cells harboring TpGPAT1 or empty vector pYES2.1 were assayed for GPAT activity with 400 μM [^14C]glycerol 3-phosphate (2.5 nCi/nmol) and different acyl-CoAs as acyl donor. After extraction of the phospholipid products, the radioactivity was measured by scintillation count. […]
Enzyme Assays: GPAT assays were conducted at 30° C. for 10 min. in a 200-pL reaction mixture containing 40 mM Hepes, pH 7.0, 400 pM ^14C-glycerol-3-phosphate (2.5 nCi/nmol), 67.5 pM palmitoyl-CoA and/or stearoyl-CoA or other fatty acyl donors, 1 mM DTT, 2 mM MgCl2, and 2.5 mg/mL BSA unless stated otherwise. […] The formed products were subjected to scintillation counting for radioactivity and thin layer chromatography analysis as described. […]

B1: TpGPAT1: membrane-bound glycerol-3-phosphate acyltransferase from T. pseudonana, 674 amino acids, SEQ ID NO:2 (nucleotide SEQ ID NO:1) (protein, listed as Thalassiosira pseudonana)
chain: MGVEKKGTMMSELDYTKAQLAFFYIVVLLSLDMLNPVKIFLHVFPAIKSWHIATFAIACMSYIFIVNLRELLYFATKVFFHSILSIFFNDVTVVGRENIPSHGPVIFTSNHANQFMDGLMIMCTCQRTISYLVADKSWNRPIIGHLAWMMGGVPVKRAQDSACKGTGKISIDLNALAGSDAVINVVGKGTSFTSQIKAGDKIRLPNNAIGIKVESIESDESMSLKVEDGVAEVLSSHPFPEYVTYDILPRIDQKDVYQNVLEKLASGGTIGIFPEGGSHDRTDLLPLKVGVALIAYSELEKDGINVPIVPVGLNYFRAHRFRGKATVEFGSPTYIEPSTLADYKKGGADKRRVCNDLLARIENSMRSVIVSVPDFETLQTIHAARRLYRQDGRNETAEQRQDMGRRFAEGYKRVLLQLGGEPPEEWLSLQSRILAYQKELNELGIRDYQVVGLDHEEVELGSESQGHSKADTVLHRMNVFGHIVHLFVIAVLAALPAMLLNLPVGLASRIYSNRRRKVALAASKVKVKGYDVMLSERVLACIVLVPSLWVVYGLLLSLFTSLDGPSLAVCFTCFPLFSYWSIMATESGMVDIKDLRPYVMRMIPSARRRLAALPATRKALRSDLRAMIKKIGPSLGDIYYEKDLNWQKIQMETKRMSMEELDPAQKDEAAKKEE
- 16:0 content of T2 seeds compared to non-transformed control [1]: More than half of the identified transgenic lines (GW) showed an increase of 16:0
- Molar percentage of DHA in phospholipids ([2]; yeast gat1 fed DHA (22:6)): 0.563%
- Molar percentage of EPA in phospholipids ([2]; yeast gat1 fed EPA (20:5)): 3.696%
- Substrate specificity for fatty acyl donors ([3]; different acyl-CoAs as acyl donors (14:0, 16:0, 16:1, 18:0, 18:1, 22:6)): highly specific for 16:0; also recorded: highest activity toward 16:0; also recorded: highly specific for saturated C16 fatty acids
- GPAT activity versus control cells transformed with empty pYES2.1 vector ([3]; microsomal membrane fractions, yeast gat1, palmitoyl (16:0)-CoA as acyl donor): about seven
